Measured values: patent US20090311685A1, “NMU-GHSR1b/NTSR1 oncogenic signaling pathway as a therapeutic target for lung cancer” (Oncotherapy Science, Inc, priority 2006, published 2009)
Each block holds one molecule with its values, some of them ahead of it. Where no end group is shown, it is not given here.

Assays:
[1] = target: T1, endogenous GHSR1b and NTSR1 on PC14 cells (Homo sapiens, UniProt P30989+Q92847); experiment: Ligand-receptor binding assay with Cy5-labeled NMU-25; conditions: 1 μM, dose-dependent
T1 construct: endogenous in cells; host or cells: PC14
Description: (§1) To confirm the binding of NMU-25 to endogenous candidate receptors on the NSCLC cell, a receptor-ligand binding assay using LC319 and PC14 cells that express GHSR1b and NTSR1, but not NMU1R and NMU2R were performed. Specifically, trypsinized cells were seeded onto a 96-well (with black wall and clear bottom) microtiter plates 24 hours prior to the assay. The medium was removed and the cells were incubated with CyS-labeled NMU-25 peptide (1 μM) with or without the addition of 10-fold excess unlabeled NMU-25 peptide as the competitor. The plate was incubated in dark for 24 hours at 37° C. and then scanned on 8200 Cellular Detection System (Applied Biosystems) to quantify the amount of CyS fluorescence probe bound to the surface of each cell. (15) Immunocytochemistry for Internalized Receptors

[2] = target: T2, endogenous GHSR1b and NTSR1 on LC319 cells (Homo sapiens, UniProt P30989+Q92847); experiment: as above; conditions: 1 μM, dose-dependent
T2 construct: endogenous in cells; host or cells: LC319
Description: as §1

LC319 cells [3] = experiment: Flow cytometry of cell cycle after siRNA transfection; format: cell-based, human
Description: Cells were plated at a density of 5×10^5 cells/100-mm dish, transfected with siRNA-expression vectors, and cultured in the presence of appropriate concentrations of geneticin. Four days after transfection, the culture medium was replaced with geneticin-free medium. Cells were incubated for additional 24 hours, then trypsinized, collected in PBS, and fixed in 70% cold ethanol for 30 min. After treatment with 100 μg/ml RNase (Sigma-Aldrich Co.), the cells were stained with 50 μg/ml propidium iodide (Sigma-Aldrich Co.) in PBS. Flow cytometry was performed on Becton Dickinson FACSCalibur and analyzed by Cell Quest software (Becton Dickinson Biosciences). The percentage of nuclei in G0/G1, S, and G2/M phases on the cell cycle and the sub-GI population, were determined from at least 20,000 ungated cells.

LC319 cells [4] = experiment: Intracellular Ca^2+ mobilization assay (FLIPR); format: cell-based, human
Description: Trypsinized LC319 cells were seeded onto poly-D-lysine coated 384-well black-wall, clear-bottom microtiter plate (1.0×10^4 cells/ml) 24 hours prior to the assay. The cells were loaded for 1 hour with 4 μM Fluo-3-AM fluorescent indicator dye in assay buffer (Hank's balanced salt solution, 20 mM HEPES, 2.5 mM probenecid), washed three times with assay buffer, and then incubated for 10 min at room temperature before detection on fluorometric imaging plate reader (FLIPR; Molecular Devices). Fluorescence data of Ca^2+ release were collected in real-time at 1 sec intervals for the first 65 sec and at 3 sec intervals for additional 300 sec after individual concentrations of peptide (NMU-25, […], or NTS) treatment. Maximum change in fluorescence over baseline was measured to determine the response of the cells to the individual peptide stimulations.

LC319 cells [5] = experiment: Measurement of cAMP levels (cAMP EIA); format: cell-based, human; conditions: final concentrations of 3 to 100 μM
Description: Trypsinized LC319, REF-LC-AI, NCI-H358 and SK-MED-1 cells were seeded onto a 96-well microtiter plate (5.0×10^4 cells) and cultured in appropriate medium supplemented with 10% FCS for 24 hours, and then the medium was changed to serum free/1 mM IBMX (isobutylmethylxanthine) 20 min prior to the assay. Next, the cells were incubated with individual concentrations of peptides (NMU-25, GHRL, or NTS) for 20 min and cAMP levels of the cells were measured using cAMP EIA System (GE Healthcare Bio-sciences).

NSCLC cells = experiment: Competition of NMU-induced cAMP production; format: cell-based
[6] = target: the molecule itself; experiment: anti-FLAG immunoprecipitation, SDS-PAGE, immunoblot with anti-FLAG, anti-NTSR1 or anti-GHSR antibody
From the text: Cell lysates from COS-7 cells that transiently express the FLAG-tagged GHSR1b, and those co-expressing both the FLAG-tagged GHSR1b and NTSR1 were immunoprecipitated with anti-FLAG antibody, subjected for SDS-PAGE, and then immunoblotted with anti-FLAG antibody (A), with anti-NTSR1 antibody (B), or with anti-GHSR antibody (C). The arrows indicate the monomer, heterodimer, and homodimers of the receptors. The molecular weight (kDa) markers are indicated on the left side of individual panels. Non-specific immunoreactive protein band detected by anti-FLAG antibody is indicated with asterisks.
Cultured cells were washed twice with ice-cold PBS(−) and incubated with 5 mM Dithiobis [succinimidyl propionate] (DSP) (PIERCE) for 60 min in PBS(−) on ice. The reaction was quenched by incubation with Stop solution (1 M Tris, pH 7.5) at a final concentration of 50 mM Tris for 15 min on ice. […] The solutions were subjected to SDS-PAGE, and receptor proteins were detected by Western blot analysis using mouse monoclonal anti-FLAG M2 antibody, goat polyclonal anti-NTSR1 antibody, or rabbit polyclonal anti-GHSR antibody as the primary antibody, and rec-Protein G-Peroxidase Conjugate (ZYMED Laboratories, Inc.) to detect the antigen-antibody complexes.

FLAG-tagged NTSR1 = target: T3, FLAG-tagged NTSR1 (Homo sapiens (Human), UniProt P30989 1-418); experiment: DSP cross-linking, immunoprecipitation and Western blot of transfected COS-7 cells
T3 construct: Transiently expressed in COS-7 cells; COS-7 cells also express GHSR1b and NTSR1 endogenously, so in the cells transfected only with FLAG-GHSR1b the NTSR1 partner is the endogenous COS-7 protein; also called NTSR1 (p3XFLAG-CMV10 construct); not shown: FLAG tag from the p3XFLAG-CMV10 vector
Description: Cultured cells were washed twice with ice-cold PBS(−) and incubated with 5 mM Dithiobis [succinimidyl propionate] (DSP) (PIERCE) for 60 min in PBS(−) on ice. The reaction was quenched by incubation with Stop solution (1 M Tris, pH 7.5) at a final concentration of 50 mM Tris for 15 min on ice. The cells were then washed twice with ice-cold PBS(−) and lysed in ice-cold Tx/G buffer (300 mM NaCl, 1% Triton X-100, 10% glycerol, 1.5 MM MgCl₂, 1 mM CaCl₂, and 10 mM iodoacetamide in 50 mM Tris-Cl, pH 7.4) containing protease inhibitor (Protease Inhibitor Cocktail Set III; Calbiochem) for 60 min on ice. […] The solutions were subjected to SDS-PAGE, and receptor proteins were detected by Western blot analysis using mouse monoclonal anti-FLAG M2 antibody, goat polyclonal anti-NTSR1 antibody, or rabbit polyclonal anti-GHSR antibody as the primary antibody, and rec-Protein G-Peroxidase Conjugate (ZYMED Laboratories, Inc.) to detect the antigen-antibody complexes.
To examine direct association between GHSR1b and NTSR1, either or both of FLAG-tagged GHSR1b and FLAG-tagged NTSR1 were transiently expressed in COS-7 cells (FIG. 2A depicts the data of transient GHSR1b expression, and FIG. 2B the expression of both receptors). […] No such species were detected when empty vector (mock) was transfected to COS-7 cells as the negative control.

COS-7 cells = experiment: Flow-cytometric binding of rhodamine-labeled NMU-25 to cells; conditions: 0.5-10 μM, 2 hours at room temperature
Description: (11) Cell-Growth and Colony-Formation Assays COS-7 transfectants that stably express NMU were seeded onto 6-well plates (5×10^4 cells/well), and maintained in medium containing 10% FCS and 0.4 mg/ml geneticin for 24, 48, 72, 96, 120, and 144 hours. At each time point, cell proliferation was evaluated by MTT assay using Cell Counting Kit (WAKO). Colonies were counted at 144 hours. All experiments were done in triplicate. Interaction of NMU-25 with COS-7 cells were examined by flow-cytometric analysis. Specifically, subconfluent cells were harvested in Cell Dissociation Solution (Sigma-Aldrich Co.) and suspended in DMEM. Then, 1×10^6 cells/microtube were washed with assay buffer (PBS(−) with 10 mM MgCl2, 2 mM EDTA, and 0.1% BSA), and the cells were incubated with 0.5-10 μM rhodamine-labeled NMU-25 peptide (NMU-25-rhodamine; Phoenix Pharmaceuticals, Inc.) in assay buffer for 2 hours at room temperature. Subsequently, the cells were washed twice with assay buffer.
To detect the population of cells binding to rhodamine-labeled NMU-25, flow cytometry was performed using Becton Dickinson FACSCalibur and analyzed by Cell Quest software. The growth effect of NMU on NSCLC cells was also examined using LC319 cells transiently transfected with plasmids expressing NMU or mock plasmids. The cells were cultured in RPMI containing 10% FCS and geneticin (1 mg/ml) for 18 days, and colonies were counted.

LC319 cells [7] = experiment: Internalization study with fluorescence ligand of NMU (confocal microscopy); format: cell-based, human
Description: LC319 cells were grown in DMEM containing 10% FCS. The cells were washed in PBS(−), and preincubated for 10 min at 37° C. in DMEM containing 0.1% BSA. The cells were then incubated for various periods of time with Alexa Fluor 594-labeled NMU-25 peptide in DMEM containing 0.1% BSA. At the end of incubation, the cells were washed three times with ice-cold PBS(−), fixed with 4% paraformaldehyde solution, initially for 5 min on ice and then for 15 min at room temperature. The cells were washed, and treated with DAPI. Images were viewed and assessed using confocal microscopy (TCS SP2 AOBS; Leica Microsystems). Optical sections with intervals of 0.25 μm were taken with 63×/1.4 objective.

T1 sequence (P30989 whole entry, one chain of several): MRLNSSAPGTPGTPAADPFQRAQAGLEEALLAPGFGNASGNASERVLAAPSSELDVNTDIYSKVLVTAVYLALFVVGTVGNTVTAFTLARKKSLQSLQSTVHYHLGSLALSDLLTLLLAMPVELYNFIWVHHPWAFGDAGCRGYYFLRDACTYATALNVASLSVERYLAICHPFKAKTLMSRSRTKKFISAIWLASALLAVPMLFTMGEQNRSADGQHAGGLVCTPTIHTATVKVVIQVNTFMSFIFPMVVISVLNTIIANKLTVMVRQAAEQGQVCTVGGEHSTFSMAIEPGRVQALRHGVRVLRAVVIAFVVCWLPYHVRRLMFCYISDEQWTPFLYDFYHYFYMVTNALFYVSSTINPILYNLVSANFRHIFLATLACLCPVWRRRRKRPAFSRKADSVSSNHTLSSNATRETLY
T2 sequence (P30989 whole entry, one chain of several): as above
T3 sequence (P30989 whole entry A200T): as the sequence (P30989 whole entry, one chain of several) above, with A200T counted along it

binding to the cell surface [1]: detected to bind to the surface
binding to the cell surface [2]: detected to bind to the surface
Molecule: Cy5-labeled NMU-25: Cy5 fluorescence-labeled NMU-25 peptide for the receptor-ligand binding assay (FRVDEEFQSPFASQSRGYFLFRPRN; ends and bridges not checked; also: Cy5 fluorescence label, site not given here)

Molecule: si-EGFP: control siRNA against enhanced green fluorescent protein gene, 5′-GAAGCAGCACGACTTCTTC-3′ (SEQ ID NO: 46) (chemistry not given here)
sub-GI fraction (LC319 cells [3]): 11.2%

Molecule: nerotensin [NTS]
intracellular Ca^2+ flux / mobilization (LC319 cells [4]): caused the mobilization response
cAMP production (LC319 cells [5]): did not enhance
NMU-induced cAMP production (NSCLC cells): competitively inhibited

binding result (FLAG-tagged NTSR1): binds
B1: FLAG-tagged GHSR1b (receptor)
chain: MWNATPSEEPGFNLTLADLDWDASPGNDSLGDELLQLFPAPLLAGVTATCVALFVVGIAGNLLTMLVVSRFRELRTTTNLYLSSMAFSDLLIFLCMPLDLVRLWQYRPWNFGDLLCKLFQFVSESCTYATVLTITALSVERYFAICFPLRAKVVVTKGRVKLVIFVIWAVAFCSAGPIFVLVGVEHENGTDPWDTNECRPTEFAVRSGLLTVMVWVSSIFFFLPVFCLTVLYSLIGRKLWRRRRGDAVVGASLRDQNHKQTVKMLGGSQRALRLSLAGPILSLCLLPSL
notes: Transiently expressed in COS-7 cells; Cross-linked with DSP, immunoprecipitated with anti-FLAG beads and blotted; also called GHSR1b (p3XFLAG-CMV10 construct); not shown: FLAG tag from the p3XFLAG-CMV10 vector
binding result [6]: binds

B2: rhodamine-labeled NMU-25 peptide: rhodamine-labeled NMU-25 peptide (Phoenix Pharmaceuticals, Inc.) (conjugate)
peptide: MLRTESCRPRSPAGQVAAASPLLLLLLLLAWCAGACRGAPILPQGLQPEQQLQLWNEIDDTCSSFLSIDSQPQASNALEELCFMIMGMLPKPQEQDEKDNTKRFLFHYSKTQKLGKSNVVSSVVHPLLQLVPHLHERRMKRFRVDEEFQSPFASQSRGYFLFRPRNGRRSAGFI
binding to the cell surface (flow cytometry) (COS-7 cells): bound to the surface of COS-7 cells in a dose-dependent manner

B3: NMU-25-Alexa594: Alexa Fluor 594-labeled NMU-25 peptide (conjugate)
peptide: B2 peptide
localization of internalized ligand (LC319 cells [7]; 15-min incubation): concentrated in dots or irregular clusters at more peripheral part of the cytoplasm
localization of internalized ligand (LC319 cells [7]; 45-min incubation): concentrated within small spots clustered in the center of the cells, close to the nucleus
internalization of labeled ligand (xz- and yz-projections) (LC319 cells [7]; confocal microscopy): incorporated within the cells
